Laboratory results from EP4269437A1 (Zhejiang Nanomab Technology Center Co. Ltd., dated 2023).
Changes are numbered by the printed parent chain. Where two headings read alike, the source gives them in different places.

T1: murine PD-1 protein (murine, UniProt Q02242 25-167, limits assumed)
T1 construct: bought
T1 sequence (looked up): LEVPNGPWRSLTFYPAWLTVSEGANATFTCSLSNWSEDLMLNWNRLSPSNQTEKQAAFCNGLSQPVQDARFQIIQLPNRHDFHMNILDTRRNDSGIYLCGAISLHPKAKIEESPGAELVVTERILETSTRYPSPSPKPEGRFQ

T2: ICOS (UniProt Q9Y6W8 21-140, limits assumed)
T2 construct: bought
T2 sequence (looked up): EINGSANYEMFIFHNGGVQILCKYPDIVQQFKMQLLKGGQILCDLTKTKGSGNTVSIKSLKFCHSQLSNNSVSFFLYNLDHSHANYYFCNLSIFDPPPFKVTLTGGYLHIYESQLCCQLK

B1: NB182-z4 (Fc fusion)
heavy: EVQLVESGGGLVQPGGSLRLSCSASGDTSFISAAGWYRQAPGKERELVSAITNTGITYYPDSVKGRFTISRDNSKNTVYLQMNNLRAEDTAVYYCNAGAPPPGGLGYDESDYWGQGTQVTVSS
notes: format not restated; not shown: IgG4 constant region of vector pCDNA3.4-IgG4
B2: NB182-z5 (Fc fusion)
heavy: B1 heavy with S49A, N84S, Q118L
notes: as for B1
B3: NB182-z1 (Fc fusion)
heavy: B1 heavy with N84S
notes: as for B1
B4: NB182-z3 (Fc fusion)
heavy: B1 heavy with V78L
notes: as for B1
B5: NB182-z2 (Fc fusion)
heavy: B1 heavy with S74A, N84S
notes: as for B1
B6: NB182 (Fc fusion)
heavy: B1 heavy with E1Q, P14A, S23A, S49A, S74A, R86K, A87P
notes: not shown: IgG4 constant region of vector pCDNA3.4-IgG4
B7: NB194 (Fc fusion)
heavy: QVQLVETGGGLVRAGGSLRLSCTASGRPFSIYDMGWFRQAPDKERESVAVINLSRGDTYYADSVKGRFTISLDSAKNTVYLQMNSLKPEDTAVYSCGVDRRQYGLGIPPLADHWGQGTQVTVSS
notes: as for B6
B8: NB194-z5 (Fc fusion)
heavy: B7 heavy with Q1E, T7S, R13Q, A14P, T23A, D57N, L72R, S74N, K87R, P88A
notes: as for B1
B9: NB194-z4 (Fc fusion)
heavy: EVQLVESGGGLVQPGGSLRLSCAASGRPFSIYDMGWFRQAPDKERESVAVINLARGNTYYADSVKGRFTISRDNAKNTVYLQMNSLRAEDTAVYSCGVDRRQYGLGIPPLADHWGQGTQVTVSS
notes: as for B1
B10: NB194-z1 (Fc fusion)
heavy: B9 heavy with N52S, A54S
notes: as for B1
B11: NB194-z2 (Fc fusion)
heavy: B9 heavy with N52S, A54S, N74S
notes: as for B1
B12: NB194-P29 (Fc fusion)
heavy: QLQLVESGGGSAQAGGSLTLSCTASGHSFSIYDMGWFRQAADKERESVAVINFGRGTTYYAESVKGRFTISLDSAKNTVYLQMNTLKPEDTAVYSCGIDRRQYGLGIPPLADHWGQGSQVTVSS
notes: as for B6
B13: NB194-P29-z4 (Fc fusion)
heavy: B12 heavy with L2V, S11L, A12V, A14P, T19R, L72R, S74N, T85S, K87R, P88A
notes: as for B6
B14: NB194-P29-z7 (Fc fusion)
heavy: B12 heavy with L2V, S11L, A12V, A14P, T19R, T23S, S74N, T85S, K87R, P88A
notes: as for B6
B15: NB194-P29-z2 (Fc fusion)
heavy: B12 heavy with S11L, A12V, A14P, T19R, T23S, L72R, S74N, T85S, K87R, P88A
notes: as for B6
B16: NB194-P29-z3 (Fc fusion)
heavy: B12 heavy with L2V, S11L, A12V, A14P, T23S, L72R, S74N, T85S, K87R, P88A
notes: as for B6
B17: NB194-P29-z1 (Fc fusion)
heavy: QVQLVESGGGLVQPGGSLRLSCSASGHSFSIYDMGWFRQAADKERESVAVINFGRGTTYYAESVKGRFTISRDNAKNTVYLQMNSLRAEDTAVYSCGIDRRQYGLGIPPLADHWGQGSQVTVSS
notes: as for B6
B18: NB194-P29-z9 (Fc fusion)
heavy: B17 heavy with H27F, S28T
notes: as for B6
B19: NB194-P29-z10 (Fc fusion)
heavy: B17 heavy with Q1E, V2L, S23A
notes: as for B6
B20: NB194-P29-z5 (Fc fusion)
heavy: B17 heavy with A41P
notes: as for B6
B21: NB194-P29-z8 (Fc fusion)
heavy: B17 heavy with A41P, D42G
notes: as for B6
B22: NB194-P29-z6 (Fc fusion)
heavy: B17 heavy with D42G
notes: as for B6

Key:
PD-1.His = biological target: T3, PD-1.His (UniProt Q15116 25-170, limits assumed); test: SPR, antibody captured on protein A, PD-1.His in flow
T3 construct: not shown: His tag

[1] = biological target: PD-1 on GS-J2/PD1 effector cells (UniProt Q15116 25-288, limits assumed); test: cell-based or functional assay
human PD-1.Fc = biological target: T4, human PD-1.Fc (human, UniProt Q15116 25-170, limits assumed); test: SPR, antibody captured on protein A, PD-1.Fc in flow
T4 construct: also called PD-1; Fc protein; PD-1.hFc; not shown: human IgG Fc fragment

murine PD-1 protein = biological target: T1, murine PD-1 protein; test: ELISA on coated protein, anti-human Fc HRP
CTLA-4 = biological target: T5, CTLA-4 (UniProt P16410 36-161, limits assumed); test: ELISA on coated protein, anti-human Fc HRP
T5 construct: bought

CD28 = biological target: T6, CD28 (UniProt P10747 19-152); test: ELISA on coated protein, anti-human Fc HRP
T6 construct: bought

ICOS = biological target: T2, ICOS; test: ELISA on coated protein, anti-human Fc HRP
PD-1 [2] = biological target: T7, PD-1 (UniProt Q15116 25-170, limits assumed); test: SPR; set-up and antigen form not restated
T7 construct: also called PD-1 protein

PD-1 [3] = biological target: T7, PD-1; test: SPR; set-up and antigen form not restated; remark: listed apart in the source
PD-1 [4] = biological target: T7, PD-1; test: SPR; set-up and antigen form not restated; remark: listed apart in the source

T4 sequence (Q15116 25-170 limits assumed): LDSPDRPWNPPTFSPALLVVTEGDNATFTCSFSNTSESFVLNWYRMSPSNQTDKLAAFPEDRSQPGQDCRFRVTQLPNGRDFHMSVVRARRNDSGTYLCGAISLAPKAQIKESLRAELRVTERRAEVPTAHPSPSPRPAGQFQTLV
T3 sequence (Q15116 25-170 limits assumed): as above
T7 sequence (Q15116 25-170 limits assumed): as above
T5 sequence (P16410 36-161 limits assumed): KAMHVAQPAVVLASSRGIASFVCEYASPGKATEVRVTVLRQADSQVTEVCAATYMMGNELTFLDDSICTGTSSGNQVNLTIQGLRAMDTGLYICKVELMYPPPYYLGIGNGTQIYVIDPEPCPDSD
PD-1 on GS-J2/PD1 effector cells, sequence (Q15116 25-288 limits assumed): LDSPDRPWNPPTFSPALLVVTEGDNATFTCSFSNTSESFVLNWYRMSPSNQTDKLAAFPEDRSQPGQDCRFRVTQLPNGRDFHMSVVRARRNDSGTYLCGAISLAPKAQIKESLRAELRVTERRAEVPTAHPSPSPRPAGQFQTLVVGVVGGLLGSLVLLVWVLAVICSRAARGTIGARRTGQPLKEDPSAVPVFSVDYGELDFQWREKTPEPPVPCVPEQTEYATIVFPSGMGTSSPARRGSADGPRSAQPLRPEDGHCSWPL

Row | Binder | Kd (PD-1.His) | koff (PD-1.His) | kon (PD-1.His) | Kd (PD-1 [4]) | koff (PD-1 [4]) | kon (PD-1 [4]) | other results
1 | B1 | 15000 pM | 9.73e-05 s⁻¹ | 6480 M⁻¹ s⁻¹ |  |  |  | 
2 | B2 | 14000 pM | 9.07e-05 s⁻¹ | 6460 M⁻¹ s⁻¹ |  |  |  | 
3 | B3 | 8250 pM | 7.61e-05 s⁻¹ | 9220 M⁻¹ s⁻¹ |  |  |  | 
4 | B4 | 11800 pM | 7.11e-05 s⁻¹ | 6000 M⁻¹ s⁻¹ |  |  |  | 
5 | B5 | 8200 pM | 4.59e-05 s⁻¹ | 5600 M⁻¹ s⁻¹ |  |  |  | 
6 | B6 | 8670 pM | 6.4e-05 s⁻¹ | 7380 M⁻¹ s⁻¹ |  |  |  | Reporter Gene Assay EC50 (luciferase) [1]: 16300 pM; Kd (human PD-1.Fc): 8670 pM; koff (human PD-1.Fc): 6.4e-05 s⁻¹; kon (human PD-1.Fc): 7380 M⁻¹ s⁻¹; binding result (murine PD-1 protein): no binding (tested: 0.1µg); binding result (CTLA-4): no binding; binding result (CD28): no binding; binding result (ICOS): no binding
7 | B7 | 494 pM | 0.000105 s⁻¹ | 212000 M⁻¹ s⁻¹ |  |  |  | Reporter Gene Assay EC50 (luciferase) [1]: 7000 pM; binding result (murine PD-1 protein): no binding (tested: 0.1µg); binding result (CTLA-4): no binding; binding result (CD28): no binding; binding result (ICOS): no binding; Kd (PD-1 [2]): 531 pM; koff (PD-1 [2]): 7.36e-05 s⁻¹; kon (PD-1 [2]): 139000 M⁻¹ s⁻¹
8 | B8 | 598 pM | 7.92e-05 s⁻¹ | 133000 M⁻¹ s⁻¹ |  |  |  | 
9 | B9 | 586 pM | 7.79e-05 s⁻¹ | 133000 M⁻¹ s⁻¹ |  |  |  | 
10 | B10 | 837 pM | 0.000107 s⁻¹ | 128000 M⁻¹ s⁻¹ |  |  |  | 
11 | B11 | 1010 pM | 9.88e-05 s⁻¹ | 97600 M⁻¹ s⁻¹ |  |  |  | 
12 | B12 |  |  |  | 151 pM | 4.37e-05 s⁻¹ | 290000 M⁻¹ s⁻¹ | fold increase in affinity compared to NB194 (PD-1 [3]): 5 fold; Kd (PD-1 [2]): 118 pM; koff (PD-1 [2]): 2.86e-05 s⁻¹; kon (PD-1 [2]): 243000 M⁻¹ s⁻¹
13 | B13 |  |  |  | 222 pM | 2.61e-05 s⁻¹ | 117000 M⁻¹ s⁻¹ | 
14 | B14 |  |  |  | 150 pM | 2.18e-05 s⁻¹ | 145000 M⁻¹ s⁻¹ | 
15 | B15 |  |  |  | 129 pM | 1.66e-05 s⁻¹ | 129000 M⁻¹ s⁻¹ | 
16 | B16 |  |  |  | 202 pM | 3.75e-05 s⁻¹ | 186000 M⁻¹ s⁻¹ | 
17 | B17 |  |  |  | 263 pM | 3.06e-05 s⁻¹ | 117000 M⁻¹ s⁻¹ | 
18 | B18 |  |  |  | 406 pM | 5.03e-05 s⁻¹ | 124000 M⁻¹ s⁻¹ | 
19 | B19 |  |  |  | 179 pM | 1.74e-05 s⁻¹ | 96800 M⁻¹ s⁻¹ | 
20 | B20 |  |  |  | 200 pM | 2.43e-05 s⁻¹ | 121000 M⁻¹ s⁻¹ | 
21 | B21 |  |  |  | 235 pM | 2.54e-05 s⁻¹ | 108000 M⁻¹ s⁻¹ | 
22 | B22 |  |  |  | 268 pM | 3.02e-05 s⁻¹ | 113000 M⁻¹ s⁻¹ | 
